{"source": "IntAct's records for PubMed 22990239", "parents": {"B1": {"name": "Heat shock 70 kDa protein 4 (Homo sapiens), P34932 (parent)", "chain": "MSVVGIDLGFQSCYVAVARAGGIETIANEYSDRCTPACISFGPKNRSIGAAAKSQVISNAKNTVQGFKRFHGRAFSDPFVEAEKSNLAYDIVQLPTGLTGIKVTYMEEERNFTTEQVTAMLLSKLKETAESVLKKPVVDCVVSVPCFYTDAERRSVMDATQIAGLNCLRLMNETTAVALAYGIYKQDLPALEEKPRNVVFVDMGHSAYQVSVCAFNRGKLKVLATAFDTTLGGRKFDEVLVNHFCEEFGKKYKLDIKSKIRALLRLSQECEKLKKLMSANASDLPLSIECFMNDVDVSGTMNRGKFLEMCNDLLARVEPPLRSVLEQTKLKKEDIYAVEIVGGATRIPAVKEKISKFFGKELSTTLNADEAVTRGCALQCAILSPAFKVREFSITDVVPYPISLRWNSPAEEGSSDCEVFSKNHAAPFSKVLTFYRKEPFTLEAYYSSPQDLPYPDPAIAQFSVQKVTPQSDGSSSKVKVKVRVNVHGIFSVSSASLVEVHKSEENEEPMETDQNAKEEEKMQVDQEEPHVEEQQQQTPAENKAESEEMETSQAGSKDKKMDQPPQAKKAKVKTSTVDLPIENQLLWQIDREMLNLYIENEGKMIMQDKLEKERNDAKNAVEEYVYEMRDKLSGEYEKFVSEDDRNSFTLKLEDTENWLYEDGEDQPKQVYVDKLAELKNLGQPIKIRFQESEERPKLFEELGKQIQQYMKIISSFKNKEDQYDHLDAADMTKVEKSTNEAMEWMNNKLNLQNKQSLTMDPVVKSKEIEAKIKELTSTCSPIISKPKPKVEPPKEEQKNAEQNGPVDGQGDNPGPQAAEQGTDTAVPSDSDKKLPEMDID"}}}
{"variants_of": "B1", "details": "with hsp7c_human HSPA8, P11142"}
{"variant": "N619Y", "effect of a mutation on the interaction": "decreasing interaction"}
{"variant": "E622A", "effect of a mutation on the interaction": "decreasing interaction"}
